Series [1] deals with equine recombinant SCGB 1A1A (horse (E. caballus)). In words: non-reducing SDS-PAGE; purified recombinant protein run on SDS-PAGE in non-reducing conditions; dimers and monomers confirmed by Western blot under denaturing and mild reducing conditions.
Series [2] concerns the molecule itself. The description is as above.

With “equine recombinant SCGB 1A1A (natural protein)”, in series [1], the stoichiometry N stood at 2.

B1: equine recombinant SCGB 1A1 (secretoglobin family 1A member 1) (natural protein, horse (E. caballus), UniProt Q8MKG2 22-91, looked up)
chain: EICQSFADIIQGLFLGTPASFEAAVEPFKPDADMKAATTQLKTLVDFLPKNTKDSILKLMDKIAKSPLCA
notes: SCGB 1A1 of the horse (E. caballus), mature protein without the signal peptide, cDNA from equine lung, 100% identical to NCBI JQ906260.1; Cloned in pMAL-c5X, said to add no vector-derived residues after Factor Xa cleavage; Disulfide-dependent homodimer; also called club (Clara) cell secretory protein; CCSP; source: E. coli BL21 (NEB Express), purified (amylose column, Factor Xa, FPLC SuperDex …)
Turning to B1, the “stoichiometry N” value in series [2] was 2.

(Values after paper PMC4002474, “Secretoglobin 1A1 and 1A1A Differentially Regulate Neutrophil Reactive Oxygen Species Production, Phagocytosis and Extracellular Trap Formation” (PLoS ONE, 2014).)
